Results from the Human Domainome abundance scans (Beltran et al. 2025).
± gives the uncertainty stated by the source.

B1: Dynamin-binding protein, residues 146 to 206; numbered along this chain, Q6XZF7 (parent)
chain: SMGQARALMGLSAQLDEELDFREGDVITIIGVPEPGWFEGELEGRRGIFPEGFVELLGPLR
B2: Nanos homolog 2, residues 63 to 115; numbered along this chain, P60321 (parent)
chain: CNFCKHNGESRHVYSSHQLKTPDGVVVCPILRHYVCPVCGATGDQAHTLKYCP

Variants of: B1
Experiment: abundance fitness (aPCA) (normalised: wild type 0, dead -1); higher = more abundant; growth selection in yeast, the domain comes from the species named
Settings: Homo sapiens

Abundance fitness of substitutions, site by site:
S1: L -0.554 ± 0.14; D -0.036 ± 0.15; N -0.049 ± 0.11; H -0.104 ± 0.12; C -0.077 ± 0.056; I 0.103 ± 0.084; F -0.029 ± 0.087; A 0.121 ± 0.084; M 0.073 ± 0.3

Variants of: B2
Experiment: as above
Settings: Homo sapiens

Abundance fitness: each site, then its substitutions
Y34: F -0.011 ± 0.091; K -0.03 ± 0.14; I -0.107 ± 0.15; Q 0.013 ± 0.099; W -0.066 ± 0.12; M -0.092 ± 0.11; C -0.066 ± 0.06; T 0.036 ± 0.1; D -0.32 ± 0.093; G -0.229 ± 0.051; S -0.097 ± 0.08; H 0.073 ± 0.12; V -0.033 ± 0.073; L 0.042 ± 0.068; N -0.134 ± 0.091; R 0.046 ± 0.068; P -0.6 ± 0.14; A -0.071 ± 0.07
P37: R 0.088 ± 0.085; K 0.139 ± 0.081; C -0.34 ± 0.12; N 0.078 ± 0.087; Y -0.305 ± 0.41; V -0.072 ± 0.066; L -0.214 ± 0.098; G -0.046 ± 0.059; Q 0.324 ± 0.2; D 0.07 ± 0.15; T -0.09 ± 0.11; F -0.306 ± 0.12; I -0.196 ± 0.13; M -0.101 ± 0.12; H -0.034 ± 0.11; A -0.231 ± 0.12; W -0.642 ± 0.15; E 0.149 ± 0.11; S 0.156 ± 0.1
T48: G -0.226 ± 0.056; Q -0.031 ± 0.11; W -0.284 ± 0.077; D -0.347 ± 0.18; A -0.136 ± 0.077; E 0.091 ± 0.093; I -0.417 ± 0.22; H -0.363 ± 0.18; F -0.326 ± 0.073; V -0.045 ± 0.079; R -0.247 ± 0.054; L -0.224 ± 0.088; C -0.158 ± 0.097; K 0.052 ± 0.12; S -0.19 ± 0.077; M -0.12 ± 0.11
L49: I 0.251 ± 0.16; F -0.076 ± 0.083; H 0.169 ± 0.18; V 0.104 ± 0.067; P 0.026 ± 0.12; G -0.05 ± 0.06; N -0.013 ± 0.14; M 0.148 ± 0.13; E -0.095 ± 0.11; R 0.185 ± 0.065; Q 0.347 ± 0.16; S -0.071 ± 0.097; A 0.081 ± 0.087; W -0.021 ± 0.13; T 0.016 ± 0.11; C -0.368 ± 0.12; D -0.046 ± 0.097; Y 0.057 ± 0.15
K50: C -0.42 ± 0.17; T -0.117 ± 0.064; I -0.809 ± 0.3; W -0.226 ± 0.12; E -0.185 ± 0.11; Y -0.318 ± 0.3; G -0.298 ± 0.063; D -0.484 ± 0.22; V -0.22 ± 0.075; Q -0.225 ± 0.11; L -0.379 ± 0.099; P 0.145 ± 0.13; A -0.284 ± 0.09; S -0.179 ± 0.086; H -0.249 ± 0.23; N -0.1 ± 0.17; M -0.063 ± 0.16; F -0.418 ± 0.17
V35: M -0.51 ± 0.2; Y -0.086 ± 0.16; F -0.676 ± 0.2; G -0.306 ± 0.071; K -0.076 ± 0.1; A -0.209 ± 0.085; P -0.341 ± 0.094; N -0.254 ± 0.16; C -0.253 ± 0.089; D -0.398 ± 0.1; W -0.445 ± 0.12; E -0.076 ± 0.078; L -0.234 ± 0.097; H 0.293 ± 0.2; R -0.1 ± 0.081
V38: K 0.314 ± 0.089; Q 0.091 ± 0.1; F 0.084 ± 0.083; M -0.003 ± 0.061; S 0.074 ± 0.084; N -0.012 ± 0.13; R 0.172 ± 0.06; H -0.222 ± 0.16; E 0.287 ± 0.1; T 0.016 ± 0.11; W -0.222 ± 0.11; A 0.001 ± 0.1; C -0.099 ± 0.18; I -0.16 ± 0.13; D -0.184 ± 0.17; G 0.082 ± 0.066
Q45: P -0.429 ± 0.15; N 0.085 ± 0.2; W -0.368 ± 0.18; S 0.039 ± 0.091; G -0.003 ± 0.068; D -0.015 ± 0.12; Y -0.168 ± 0.1; I -0.214 ± 0.14; A -0.069 ± 0.077; E -0.186 ± 0.09; T -0.074 ± 0.11; F -0.043 ± 0.26; M 0.119 ± 0.13; C -0.186 ± 0.19; V -0.047 ± 0.067; L -0.037 ± 0.094; K 0.024 ± 0.11
G43: R -0.135 ± 0.09; L -0.494 ± 0.08; T -0.467 ± 0.079; E -0.187 ± 0.12; M -0.414 ± 0.07; H -0.701 ± 0.3; Q -0.176 ± 0.081; C -0.421 ± 0.13; P -0.718 ± 0.079; V -0.679 ± 0.092; D -0.125 ± 0.1; N -0.35 ± 0.23; Y -0.703 ± 0.11; I -0.744 ± 0.17; A -0.138 ± 0.075
C52: F -0.789 ± 0.22; R -0.506 ± 0.085; D -0.505 ± 0.18; H -0.181 ± 0.078; V -0.721 ± 0.082; P -0.249 ± 0.39; I -0.731 ± 0.49; M -0.788 ± 0.26; Q -0.574 ± 0.19; E -0.64 ± 0.34; G -0.732 ± 0.09; W -0.824 ± 0.12; S -0.432 ± 0.12; Y -0.497 ± 0.13; K -0.488 ± 0.1; A -0.777 ± 0.2
A41: S -0.014 ± 0.069; I -0.574 ± 0.25; P -0.593 ± 0.11; H -0.068 ± 0.15; T -0.089 ± 0.099; E -0.032 ± 0.062; W -0.383 ± 0.14; V -0.102 ± 0.068; L -0.032 ± 0.089; F -0.379 ± 0.081; D -0.287 ± 0.15; G -0.08 ± 0.074; M -0.05 ± 0.082; Q 0.023 ± 0.14; Y -0.184 ± 0.089; R -0.251 ± 0.091; C 0.014 ± 0.1; K -0.173 ± 0.11
C39: G -0.731 ± 0.13; M -0.717 ± 0.2; W -0.708 ± 0.11; V -0.702 ± 0.21; R -0.696 ± 0.11; K -0.608 ± 0.11; I -0.739 ± 0.39; P -0.85 ± 0.24; D -0.837 ± 0.32; Y -0.781 ± 0.073; F -0.497 ± 0.36; L -0.607 ± 0.094; Q -0.428 ± 0.18; H -0.597 ± 0.22; E -0.484 ± 0.12; T -0.58 ± 0.08; A -0.986 ± 0.46
G40: A -0.08 ± 0.12; I -0.394 ± 0.12; Y -0.168 ± 0.15; T -0.063 ± 0.12; R 0.021 ± 0.066; S -0.052 ± 0.093; K 0.183 ± 0.099; E 0.13 ± 0.15; C -0.023 ± 0.073; H 0.051 ± 0.16; F -0.012 ± 0.23; N -0.134 ± 0.21; D 0.343 ± 0.16; M -0.107 ± 0.098; P -0.595 ± 0.079; Q -0.172 ± 0.23
H47: Y -0.621 ± 0.23; T -0.695 ± 0.24; V -0.628 ± 0.064; D -0.463 ± 0.13; G -0.643 ± 0.067; S -1.01 ± 0.29; Q -0.739 ± 0.34; P -0.607 ± 0.19; W -0.781 ± 0.083; R -0.443 ± 0.12; N -0.591 ± 0.1; I -0.981 ± 0.17; K -0.616 ± 0.2; A -0.431 ± 0.11; M -0.647 ± 0.12; L -0.735 ± 0.11
P53: G -0.359 ± 0.16; S -0.439 ± 0.2
A46: P -0.403 ± 0.13; V -0.192 ± 0.1; D -0.426 ± 0.23; Q -0.587 ± 0.12; M -0.6 ± 0.15; G -0.133 ± 0.068; Y -0.47 ± 0.12; I -0.308 ± 0.17; K -0.349 ± 0.094; S -0.241 ± 0.13; C -0.816 ± 0.25; L -0.649 ± 0.11; E -0.202 ± 0.082; R -0.322 ± 0.11; W -0.77 ± 0.22; N -0.694 ± 0.4; H -0.124 ± 0.28
C36: H -0.623 ± 0.31; M -0.75 ± 0.094; P -0.74 ± 0.24; V -0.93 ± 0.098; L -1 ± 0.11; N -0.675 ± 0.11; D -0.444 ± 0.11; Y -0.726 ± 0.23; G -0.826 ± 0.086; T -0.804 ± 0.29; S -0.699 ± 0.094; W -1.16 ± 0.43; R -0.658 ± 0.083; A -0.416 ± 0.1; F -0.888 ± 0.13; E -0.627 ± 0.1; Q -0.471 ± 0.22; I -0.976 ± 0.36
T42: M -0.153 ± 0.13; H -0.481 ± 0.23; P -0.895 ± 0.24; N -0.23 ± 0.14; D -0.24 ± 0.12; E -0.128 ± 0.12; A -0.162 ± 0.078; L -0.294 ± 0.068; S -0.116 ± 0.067; W -0.37 ± 0.095; Q -0.023 ± 0.11; R -0.151 ± 0.07; F -0.395 ± 0.39; C -0.223 ± 0.096; I -0.342 ± 0.074
D44: T -0.14 ± 0.075; G -0.048 ± 0.059; E -0.334 ± 0.14; Q -0.25 ± 0.11; S -0.294 ± 0.097; F 0.009 ± 0.15; I -0.457 ± 0.25; V -0.299 ± 0.08; L -0.453 ± 0.084; Y -0.55 ± 0.14; N -0.047 ± 0.1; P -0.274 ± 0.1; C -0.391 ± 0.12; H -0.514 ± 0.23; W -0.429 ± 0.11; R -0.403 ± 0.084; M -0.271 ± 0.063
H33: T 0.068 ± 0.1; W -0.086 ± 0.09; V 0.033 ± 0.069; Y -0.335 ± 0.11
Y51: W -0.237 ± 0.098; L -0.137 ± 0.077; T -0.097 ± 0.12; G -0.193 ± 0.073; S -0.104 ± 0.085; I -0.34 ± 0.17; R -0.258 ± 0.05; E -0.368 ± 0.15; P -0.287 ± 0.074; F 0.097 ± 0.12; V -0.071 ± 0.067; C -0.21 ± 0.11; K 0.024 ± 0.12; N 0.075 ± 0.13; M -0.203 ± 0.12; Q -0.163 ± 0.11; D -0.381 ± 0.15
